Holding throughout (assay): SPR
In data set [1] the target is T1, IRF4 DBD WT (human, UniProt Q15306 21-130).
T1 sequence: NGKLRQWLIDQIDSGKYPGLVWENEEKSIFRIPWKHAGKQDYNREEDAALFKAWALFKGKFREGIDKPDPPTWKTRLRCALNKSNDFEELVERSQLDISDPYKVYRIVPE

Data set [2] has as its target T2, IRF4 DBD L116R (human, UniProt Q15306 21-130, L116R).
T2 sequence: T1 sequence with L96R

Data set [3] deals with T3, IRF4 DBD K59A (human, UniProt Q15306 21-130, K59A).
T3 sequence: T1 sequence with K39A

Substitutions are numbered along the chain they refer to.

B1: AICE2 (dsDNA)
DNA 1: GAGGTTTCGGGATGACTAATACT
DNA 2: AGTATTAGTCATCCCGAAACCTC
For the molecule B1, the Kd in data set [1] is 1380 ± 510 nM.

B2: AICE1 (dsDNA)
DNA 1: TAGTGCAGAAATGAGTCAGAGA
DNA 2: TCTCTGACTCATTTCTGCACTA
With B2, the Kd came to 2210 ± 30 nM in data set [2] and 2800 ± 480 nM in data set [1].

B3: ISRE (SPR) (dsDNA)
DNA 1: CAACTGAAACCGAGAAAGC
DNA 2: GCTTTCTCGGTTTCAGTTG
With B3, the equilibrium dissociation constant (Kd) came out at 60 ± 40 nM in data set [2], 250 ± 150 nM in data set [1] and 660 ± 100 nM in data set [3].

B4: EICE1 (dsDNA)
DNA 1: TAAAAGGAAGTGAAACCAAG
DNA 2: CTTGGTTTCACTTCCTTTTA
B4: the figures for the dissociation constant Kd in data set [2] and in data set [1] were 60 ± 60 nM and 260 ± 70 nM, respectively.

The record behind these values is publication PMC7913761.
